Assays:
[1] = target: V12.Pf3.2 recombinant HBc chimer particle (hepatitis B virus, subtype ayw; Plasmodium falciparum); experiment: particle ELISA, end point titer dilution of MoAb 2A10
[2] = target: V12.Pf3 recombinant HBc chimer particle (hepatitis B virus, subtype ayw; Plasmodium falciparum); experiment: as above
[3] = target: V12.Pf3.5 recombinant HBc chimer particle (hepatitis B virus, subtype ayw; Plasmodium falciparum); experiment: as above
[4] = target: V12.Pf1 recombinant HBc chimer particle (hepatitis B virus, subtype ayw; Plasmodium falciparum); experiment: as above
[5] = target: V12.Pf3.8 recombinant HBc chimer particle (hepatitis B virus, subtype ayw; Plasmodium falciparum); experiment: as above
[6] = target: V12.Pf3.6 recombinant HBc chimer particle (hepatitis B virus, subtype ayw; Plasmodium falciparum); experiment: as above
[7] = target: V12.Pf3.11 recombinant HBc chimer particle (hepatitis B virus, subtype ayw; Plasmodium falciparum); experiment: as above
[8] = target: V12.Pf3.10 recombinant HBc chimer particle (hepatitis B virus, subtype ayw; Plasmodium falciparum); experiment: as above
[9] = target: V12.Pf3.1 recombinant HBc chimer particle (hepatitis B virus, subtype ayw; Plasmodium falciparum); experiment: as above
[10] = target: V12.Pf3.3 recombinant HBc chimer particle (hepatitis B virus, subtype ayw; Plasmodium falciparum); experiment: as above
[11] = target: V12.Pf3.4 recombinant HBc chimer particle (hepatitis B virus, subtype ayw; Plasmodium falciparum); experiment: as above
[12] = target: V12.Pf3.9 recombinant HBc chimer particle (hepatitis B virus, subtype ayw; Plasmodium falciparum); experiment: as above
[13] = target: V12.Pf3.12 recombinant HBc chimer particle (hepatitis B virus, subtype ayw; Plasmodium falciparum); experiment: as above
[14] = target: V12.Pf3.1 recombinant HBc chimer particle (hepatitis B virus, subtype ayw; Plasmodium falciparum); experiment: particle ELISA, end point titer dilution of MoAb 2A10; reference V12.Pf3

MoAb 2A10 (antibody)
165 fold: Antigenicity (end point titer, normalized so that the lowest titer is 1) [2]
5 fold: Antigenicity (end point titer, normalized so that the lowest titer is 1) [3] | Antigenicity (end point titer, normalized so that the lowest titer is 1) [5] | Antigenicity (end point titer, normalized so that the lowest titer is 1) [6] | Antigenicity (end point titer, normalized so that the lowest titer is 1) [7] | Antigenicity (end point titer, normalized so that the lowest titer is 1) [10] | Antigenicity (end point titer, normalized so that the lowest titer is 1) [11] | Antigenicity (end point titer, normalized so that the lowest titer is 1) [12] | Antigenicity (end point titer, normalized so that the lowest titer is 1) [13] | fold less antigenic than V12.Pf3 [14]
33 fold: Antigenicity (end point titer, normalized so that the lowest titer is 1) [1] | Antigenicity (end point titer, normalized so that the lowest titer is 1) [4] | Antigenicity (end point titer, normalized so that the lowest titer is 1) [9]
1 fold: Antigenicity (end point titer, normalized so that the lowest titer is 1) [8]
